Test results reported in EP4703474A1, “ANTI-LRRC15 ANTIBODY” (priority 2023, dated 2024).

Tests used:
[1] = test system: Head and neck carcinoma cell line Detroit 562; experiment: In vivo antitumor effect, Detroit 562 subcutaneous transplant model; settings: 0.4 mg/kg, tail vein, on Day 10, female SCID mice
Method: (§1) The antitumor effects of the antibody-drug conjugates were evaluated by using animal models in which cells of a human tumor cell line had been transplanted into immunodeficient mice, or cells of a mouse tumor cell line had been transplanted into immunocompetent mice. 4 to 6 Week-old SCID mice (CB17/Icr-Prkdc[scid]/CrlCrlj, Jackson Laboratory Japan, Inc.), NSG mice (NOD.Cg-Prkdcscid Il2rgtm1Wjl/SzJ, Jackson Laboratory Japan, Inc.), or B6J mice (C57BL/6J, Jackson Laboratory Japan, Inc.) were habituated for 3 days or more under SPF conditions before experimental use. The mice were fed with sterilized solid feed and given sterilized tap water. The major and minor diameters of the transplanted tumors were measured twice a week with an electronic digital caliper (Mitutoyo Corporation), and the estimated tumor volume was calculated using the following formula. Estimated tumor volume (mm^3) = 1/2 × major diameter (mm) × [minor diameter (mm)]^2 All antibody-drug conjugates were diluted with ABS and administered into the tail vein at doses shown in each Example. In addition, ABS (vehicle) or control hIgG-PBD prepared in Reference Example 4 was administered as the control group, in a similar manner. 5 to 6 Mice were used per group in the experiment. To analyze the LRRC15 expression in mouse tumor models, immunohistochemical staining of LRRC15 was performed. […]

[2] = test system: Gastric carcinoma cell line Caki-1; experiment: In vivo antitumor effect, Caki-1 subcutaneous transplant model; settings: 0.4 mg/kg, tail vein, on Day 21, female SCID mice
Method: as §1

B1: H02L01-V1-PBD (conjugate)
heavy: EVQLVESGGGLVQPGGSLRLSCAASGFTFRDYYMAWVRQAPGKGLEWVSSIGFDESRTYYADSVKGRFTISRDDSKNTLYLQMNSLRAEDTAVYYCARHGVSKYSGDNWFAYWGQGTLVTVSSASTKGPSVFPLAPSSKSTSGGTAALGCLVKDYFPEPVTVSWNSGALTSGVHTFPAVLQSSGLYSLSSVVTVPSSSLGTQTYICNVNHKPSNTKVDKKVEPKSCDKTHTCPPCPAPEAAGGPSVFLFPPKPKDTLMISRTPEVTCVVVDVSHEDPEVKFNWYVDGVEVHNAKTKPREEQYNSTYRVVSVLTVLHQDWLNGKEYKCKVSNKALAAPIEKTISKAKGQPREPQVYTLPPSREEMTKNQVSLTCLVKGFYPSDIAVEWESNGQPENNYKTTPPVLDSDGSFFLYSKLTVDKSRWQQGNVFSCSVMHEALHNHYTQKSLSLSPGK
light: DIQMTQSPSSLSASVGDRVTITCKSSQGLLYSGDQKNYLAWYQQKPGKAPKLLIYWASTRQSGVPSRFSGSGSGTDFTLTISSLQPEDFATYYCQQYYDPPYTFGQGTKVEIKRTVAAPSVFIFPPSDEQLKSGTASVVCLLNNFYPREAKVQWKVDNALQSGNSQESVTEQDSKDSTYSLSSTLTLSKADYEKHKVYACEVTHQGLSSPVTKSFNRGEC
antitumor effect (estimated tumor volume) [1]: antitumor activity higher than that of the vehicle and control hIgG-PBD
antitumor effect (estimated tumor volume) [2]: antitumor activity higher than that of the vehicle and control hIgG-PBD
